Assays:
[1] = biological target: GLUT1 (glucose transporter band 4.5) (Homo sapiens) (UniProt P11166); assay: ELONA; conditions: ELONA: protein coated at 10 nM in carbonate/bicarbonate pH 9.6; aptamer (1.5625 nM-5 uM, 95 C 5 min then snap-cooled) in 1x DPBS, 0.55 mM MgCl2, 0.05% …
Glycophorin A [2] = biological target: T1, Glycophorin A (Homo sapiens, UniProt P02724 20-91); assay: ELONA; one-site fit, R2 0.857; ELONA: protein coated at 10 nM in carbonate/bicarbonate pH 9.6; aptamer (1.5625 nM-5 uM, 95 C 5 min then snap-cooled) in 1x DPBS, 0.55 mM MgCl2, 0.05% Tween-20, 1% BSA, 1 h, room temperature; SA-HRP/TMB read-out at 450 nm; conditions: protein: recombinant; label: 5' biotin; hairpin, 3 loops predicted by Mfold; CD indicates parallel G4
Glycophorin A [3] = biological target: T1, Glycophorin A; assay: ELONA; one-site fit, R2 0.716; text says low micromolar; ELONA: protein coated at 10 nM in carbonate/bicarbonate pH 9.6; aptamer (1.5625 nM-5 uM, 95 C 5 min then snap-cooled) in 1x DPBS, 0.55 mM MgCl2, 0.05% Tween-20, 1% BSA, 1 h, room temperature; SA-HRP/TMB read-out at 450 nm; conditions: protein: recombinant; label: 5' biotin; hairpin, 2 loops predicted by Mfold; CD indicates parallel G4
Glycophorin A [4] = biological target: T1, Glycophorin A; assay: ELONA; one-site fit, R2 0.948; text says low micromolar; ELONA: protein coated at 10 nM in carbonate/bicarbonate pH 9.6; aptamer (1.5625 nM-5 uM, 95 C 5 min then snap-cooled) in 1x DPBS, 0.55 mM MgCl2, 0.05% Tween-20, 1% BSA, 1 h, room temperature; SA-HRP/TMB read-out at 450 nm; conditions: protein: recombinant; label: 5' biotin; hairpin, 2 loops predicted by Mfold; CD B-DNA-like

Chain of GLUT1 (glucose transporter band 4.5) (Homo sapiens) (P11166 whole entry): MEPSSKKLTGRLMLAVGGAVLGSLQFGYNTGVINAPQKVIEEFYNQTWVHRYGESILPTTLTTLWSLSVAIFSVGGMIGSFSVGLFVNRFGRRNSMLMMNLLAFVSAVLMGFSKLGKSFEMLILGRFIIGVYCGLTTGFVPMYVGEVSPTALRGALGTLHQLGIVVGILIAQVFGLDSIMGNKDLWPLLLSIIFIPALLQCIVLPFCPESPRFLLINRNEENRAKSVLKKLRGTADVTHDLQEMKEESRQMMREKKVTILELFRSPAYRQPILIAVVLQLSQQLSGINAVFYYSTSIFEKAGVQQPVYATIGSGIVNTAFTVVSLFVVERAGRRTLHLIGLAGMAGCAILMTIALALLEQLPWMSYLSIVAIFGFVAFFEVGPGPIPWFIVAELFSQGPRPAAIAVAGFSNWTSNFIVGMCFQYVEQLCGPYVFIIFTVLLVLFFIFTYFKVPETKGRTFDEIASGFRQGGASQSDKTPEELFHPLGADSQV

| Molecule | Kd [1] | further results |
| --- | --- | --- |
| CTCCTCTGACTGTAACCACGTCGCGGGTAGGGGGAGGGCCGAGGAGGCTGTAGGTGGGTGGCATAGGTAGTCCAGAAGCC [BB1 aptamer (80 nt)] | 41.6 nM |  |
| ATCCAGAGTGACGCAGCATGCGGGGAGAGGAGTGTGGGATGGGTTTGTTTGTTTAGGGTGGACACGGTGGCTTAGT [N4 aptamer (76 nt)] | 37.6 nM |  |
| ATCCAGAGTGACGCAGCACGGGTTGGGGCTGGTTGTGTGTTGTTTTTTTGGCTGTATGTGGACACGGTGGCTTAGT [N1 aptamer (76 nt)] | 59.5 nM |  |
| BB1 aptamer (80 nt) (structured_DNA) DNA: CTCCTCTGACTGTAACCACGTCGCGGGTAGGGGGAGGGCCGAGGAGGCTGTAGGTGGGTGGCATAGGTAGTCCAGAAGCC |  | Kd (Glycophorin A [2]): 25 ± 10.3 nM |
| N4 aptamer (76 nt) (structured_DNA) DNA: ATCCAGAGTGACGCAGCATGCGGGGAGAGGAGTGTGGGATGGGTTTGTTTGTTTAGGGTGGACACGGTGGCTTAGT |  | Kd (Glycophorin A [3]): 354 ± 227 nM |
| N1 aptamer (76 nt) (ssDNA) DNA: ATCCAGAGTGACGCAGCACGGGTTGGGGCTGGTTGTGTGTTGTTTTTTTGGCTGTATGTGGACACGGTGGCTTAGT |  | Kd (Glycophorin A [4]): 356 ± 95.6 nM |

From paper PMC12211734, “In silico and in vitro characterisation and affinity maturation of human red blood cell binding aptamers†”
